Laboratory results from the supplement of paper PMC10724198.
± gives the standard deviation of the averaged measurements.

Test system: Saccharomyces cerevisiae
Assay: protein stability index of tFT-peptide fusion (C-terminal peptide) (PSI (0-1 scale)); higher = more stable (slower turnover)
Conditions: genetic background: wild type; temperature: 30 C
Protocol: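 Multiplexed protein stability (MPS) profiling in S. cerevisiae. Random 12-aa peptides (tFT-X12 library) are fused to the C-terminus of a sfGFP-mCherry tandem fluorescent timer, after mCherry and a GGGS linker. Cells are FACS-sorted into 8 mCherry/sfGFP bins and deep-sequenced. The protein stability index (PSI) is the read-weighted bin average, scaled from 0 (unstable) to 1 (stable). Only peptides with >10 reads are reported; cells were grown at 30 °C in SC-His with glucose.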
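Further: PSI is a weighted mean of sequencing reads over stability bins, variants kept only with over 10 reads, mCherry proximal and sfGFP distal, peptide attached via GGGS linker.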

| Sequence | protein stability index |
| --- | --- |
| FAARASLSPLTR | 0.855 ± 0.2 |
| FAFSDFHLVVFF | 0.684 ± 0.011 |
| FALRDLHLSCFA | 0.577 ± 0.012 |
| FANKLYSVFMDN | 0.655 ± 0.13 |
| FAPTRAAPVTVS | 0.5712 ± 0.0057 |
| FAPVPPRATFSH | 0.691 ± 0.022 |
| FASFLSIPTRFS | 0.712 ± 0.02 |
| FCCFFFPALCCL | 0.493 ± 0.024 |
| FCCVETRRCVRL | 0.717 ± 0.16 |
| FCGDDVCLTHFG | 0.729 ± 0.029 |
| FCLGSVIWERDS | 0.625 ± 0.076 |
| FCLLSCDTFSSS | 0.6318 ± 0.0042 |
| FCLPVFCVPSHF | 0.634 ± 0.11 |
| FCRKVFFALRRF | 0.612 ± 0.095 |
| FCSCSCEFVPRS | 0.618 ± 0.039 |
| FCSLLDSLVGGC | 0.745 ± 0.072 |
| FCSQNLQMNQLS | 0.6 ± 0.041 |
| FCVFSDVSRFSY | 0.701 ± 0.082 |
| FCVVGKGWKGEG | 0.626 ± 0.0098 |
| FCWLCRFADSPF | 0.733 ± 0.078 |
| FDDSNSRTGPVQ | 0.692 ± 0.11 |
| FDGRVTALRVRL | 0.724 ± 0.033 |
| FDITGAGLDSSF | 0.7904 ± 0.0053 |
| FDSSLFTVSQYH | 0.768 ± 0.084 |
| FDSYVNHRLNRD | 0.608 ± 0.057 |
| FDVAPTSRVNFL | 0.724 ± 0.06 |

| Sequence | protein stability index |
| --- | --- |
| FERRGSSFWGGC | 0.7 ± 0.032 |
| FESGINWLLSDK | 0.672 ± 0.06 |
| FFACHDGYWCGC | 0.778 ± 0.036 |
| FFAGELGVYCLV | 0.596 ± 0.033 |
| FFAPSRLHHLSL | 0.772 ± 0.071 |
| FFFPLLLLSPPI | 0.535 ± 0.015 |
| FFGGAGGTEGLG | 0.689 ± 0.048 |
| FFMNGLWGLSVR | 0.612 ± 0.0092 |
| FFPARPPPPPPR | 0.769 ± 0.04 |
| FFPELSNLHPPS | 0.708 ± 0.017 |
| FFPFSLFPLPPS | 0.744 ± 0.066 |
| FFPPPSSFCLSL | 0.772 ± 0.069 |
| FFRSFVVGSVLV | 0.567 ± 0.0064 |
| FFSPSSVSVGVR | 0.65 ± 0.076 |
| FFSRSPVFSFDF | 0.8218 ± 0.0017 |
| FFSSSDRQLSNQ | 0.716 ± 0.041 |
| FFSSTVFLLFLP | 0.569 ± 0.025 |
| FFTPSKQSQAYC | 0.662 ± 0.027 |
| FFVIIPAKSWLG | 0.546 ± 0.03 |
| FFVRCTEWLGED | 0.6161 ± 0.0039 |
| FGAEWRGVLSGC | 0.773 ± 0.013 |
| FGARVWVGRVGG | 0.657 ± 0.069 |
| FGCCCGGGLLGV | 0.711 ± 0.027 |
| FGCRARYDLVLI | 0.641 ± 0.098 |
| FGFHSLSISFFM | 0.611 ± 0.035 |
| FGFLELTDPHGC | 0.576 ± 0.023 |

| Sequence | protein stability index |
| --- | --- |
| FGGFVPSSQCLI | 0.712 ± 0.018 |
| FGGGGLAPSLQS | 0.602 ± 0.044 |
| FGGKLVTHGISY | 0.673 ± 0.054 |
| FGGTAVAGLFDL | 0.725 ± 0.061 |
| FGIRGMTSVGSP | 0.675 ± 0.088 |
| FGKWSWGECEGS | 0.69 ± 0.032 |
| FGLPFPSNIVSG | 0.757 ± 0.024 |
| FGLPGGVTVVTW | 0.757 ± 0.14 |
| FGQSKFAMKGVR | 0.708 ± 0.0086 |
| FGRAGAGERRGA | 0.722 ± 0.28 |
| FGRSGDGVGGLA | 0.667 ± 0.026 |
| FGRVRFCFRMRS | 0.671 ± 0.025 |
| FGSSLVVSMVFD | 0.704 ± 0.015 |
| FGTATPPPTLPP | 0.727 ± 0.02 |
| FGVLGCGFLLSL | 0.688 ± 0.018 |
| FGVVCIGVLGGV | 0.5361 ± 0.0014 |
| FGVVLEGAGWGG | 0.73742 ± 0.00056 |
| FGYAGGSRVLGS | 0.68 ± 0.0095 |
| FGYCFYRFHLQR | 0.666 ± 0.049 |
| FGYGLPFPERVE | 0.781 ± 0.046 |
| FHPTCAPLPCPP | 0.663 ± 0.038 |
| FHPVLPMSFRHV | 0.666 ± 0.029 |
| FHSRGVASPQPP | 0.682 ± 0.018 |
| FHTLCLGPCTVI | 0.675 ± 0.035 |
| FISVFALWDVFL | 0.7 ± 0.01 |
| FISYFRFDRFGS | 0.699 ± 0.029 |

| Sequence | protein stability index |
| --- | --- |
| FKVVLGRLGVRA | 0.53638 ± 6.4e-06 |
| FLAPPPDVGQLV | 0.692 ± 0.038 |
| FLCNSVAGSLCI | 0.643 ± 0.022 |
| FLCSLAPHRPLL | 0.704 ± 0.033 |
| FLFHAIGTCRLC | 0.671 ± 0.015 |
| FLFLTCPFSFSF | 0.633 ± 0.018 |
| FLFVVSFGGAVA | 0.512 ± 0.0061 |
| FLGGDVVGVFVG | 0.658 ± 0.059 |
| FLISLPLPAPLP | 0.679 ± 0.013 |
| FLLCLWIFFFGS | 0.482 ± 0.028 |
| FLLFIRGFSGCR | 0.624 ± 0.018 |
| FLLVCLNDVLRP | 0.588 ± 0.062 |
| FLPLPRPRLLLP | 0.617 ± 0.0076 |
| FLPPPPTPSPPY | 0.723 ± 0.043 |
| FLPPPPVLPSLP | 0.697 ± 0.024 |
| FLPTALTQPLIT | 0.624 ± 0.028 |
| FLQIPVQILPDP | 0.705 ± 0.027 |
| FLRLSPQFASFP | 0.677 ± 0.083 |
| FLSWSLPCITFR | 0.571 ± 0.051 |
| FLTCTTSLPFVP | 0.728 ± 0.13 |
| FLVSPFTLFPFS | 0.754 ± 0.12 |
| FMHCLLAQFAGL | 0.705 ± 0.11 |
| FNSFPPSPSLRP | 0.729 ± 0.012 |
| FNVSCLRPNMGE | 0.712 ± 0.044 |
| FPATSTCTFALY | 0.665 ± 0.0012 |
| FPCVAVFVESNR | 0.647 ± 0.049 |

| Sequence | protein stability index |
| --- | --- |
| FPFSSFSGRCVD | 0.6697 ± 0.0042 |
| FPHRHAPYPSAI | 0.7 ± 0.035 |
| FPLIFALFPTFF | 0.603 ± 0.0067 |
| FPLPPHSSPLPP | 0.695 ± 0.037 |
| FPPHPPPPPPLN | 0.743 ± 0.041 |
| FPPLIPLPINHP | 0.631 ± 0.1 |
| FPPLLASPPPSP | 0.705 ± 0.011 |
| FPPLRSLPPTPP | 0.793 ± 0.12 |
| FPPPLCLHRPIP | 0.786 ± 0.1 |
| FPPPLHFPPLPA | 0.723 ± 0.055 |
| FPPPPPRPPRLP | 0.68 ± 0.075 |
| FPPPPRPPLSFP | 0.711 ± 0.078 |
| FPPPSPPPLSPC | 0.689 ± 0.024 |
| FPQHPLFDPPAF | 0.793 ± 0.013 |
| FPRLTYAPFLAD | 0.722 ± 0.02 |
| FPRPLPPLSPLL | 0.7162 ± 0.0037 |
| FPSCSAGLHLNL | 0.7521 ± 0.0034 |
| FPSFHLCNIPST | 0.757 ± 0.076 |
| FPSPPPGPHPSP | 0.76336 ± 0.00013 |
| FPSSLPSAFPCP | 0.675 ± 0.016 |
| FPSSPPAHAAPH | 0.68 ± 0.019 |
| FPVWVKGLLGMG | 0.636 ± 0.048 |
| FQPQPSPAHPSH | 0.693 ± 0.023 |
| FRFNPGSCSRPV | 0.681 ± 0.016 |
| FRLICSRQFFAG | 0.593 ± 0.018 |
| FRPLPPPPPSPT | 0.672 ± 0.052 |

| Sequence | protein stability index |
| --- | --- |
| FRQQGGERVRWG | 0.66 ± 0.0088 |
| FRSPRFLRSPPR | 0.793 ± 0.064 |
| FRTLVEAGSLMD | 0.6995 ± 0.00077 |
| FRVEWKPLYHGI | 0.623 ± 0.037 |
| FRVHSFRLSCLS | 0.574 ± 0.022 |
| FSAVRIQASLRW | 0.629 ± 0.028 |
| FSCPALCSCLAV | 0.604 ± 0.087 |
| FSFLFSFFFSFL | 0.55971 ± 7.1e-07 |
| FSFVPRHGVSFR | 0.6349 ± 0.0059 |
| FSFVTFYSICDV | 0.528 ± 0.012 |
| FSGGGRGLGGEV | 0.684 ± 0.024 |
| FSHRPSPLSLSL | 0.719 ± 0.11 |
| FSKSRLRNLKLK | 0.655 ± 0.016 |
| FSLGQCLFGLWV | 0.612 ± 0.026 |
| FSLHPGTYLVVL | 0.5913 ± 0.0026 |
| FSLSVVGLSRWG | 0.78 ± 0.1 |
| FSLTPSDPFPPA | 0.681 ± 0.043 |
| FSLYSFSSSFSF | 0.677 ± 0.033 |
| FSPLARMGSGTL | 0.701 ± 0.0073 |
| FSPPSPPHPSPL | 0.741 ± 0.023 |
| FSPSPPPPAPLH | 0.729 ± 0.13 |
| FSRCRRGLVLCL | 0.479 ± 0.045 |
| FSRLNAKLPCLA | 0.579 ± 0.06 |
| FSSSSVRINLGV | 0.663 ± 0.01 |
| FSTIWSLPLSPR | 0.716 ± 0.038 |
